This passage reports sfGFP reporter fluorescence results from the supplement of paper PMC12783771.

± gives the standard deviation of the averaged measurements.

Data set [1] in a line: sfGFP reporter fluorescence (15 h) (µM FITC); higher = higher leak. The note with it: library round: Round 0; ligand: none. The procedure: (§1)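 Cell-free (BL21 Star DE3 extract, PANOx-SP) biosensing: 1 µL Echo-assembled reactions with linear PbrR variant templates (5 nM) and pPbrR-sfGFP reporter, with 1 µM Pb (lead chloride), 30 µM Zn (zinc acetate) or no ligand; endpoint sfGFP fluorescence after 15 h at 30 °C, calibrated as µM FITC. Round 0 library (alanine scan, site saturation, combinatorial) of PbrR from Cupriavidus metallidurans; 2 biological replicates.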

Data set [2] can be described thus: sfGFP reporter fluorescence (15 h) (µM FITC); higher = stronger transcriptional activation. The note with it: library round: Round 0. The procedure:
as §1

Consider “MNIQIGELAKRTACPVVTIRFYEQEGLLPPPGRSRGNFRLYGEEHVERLQFIRHCRSLDMPLSDVRTLLSYRKRPDQDCGEVNMLLDEHIRQVESRIGALLELKHHLVELREACSGARPAQSCGILQGLSDCVCDTRGTTAHPSDA [*146A]”, for which the sfGFP reporter fluorescence in data set [1] came to 0.06121 ± 0.00052; in data set [2] (ligand: 1 µM Pb) it was 0.0918 ± 0.006; in data set [2] (ligand: 30 µM Zn), 0.671 ± 0.0096.
